B1: Z7 (antibody, V domains shown)
V domain 1: QVQLQESGPGLVKPSETLSLTCTVFGGSVNNPTNYWGWIRQSPGKGLEWIGSVYYTGINYYNPSLESRVTIAVVTSKNQFSLKLTSVTATDTAVYYCARHPRPETGYDFDYWGQGTLVTVSS
V domain 2: QSVLTQPPSVSAAPGQKVTISCSGSSSNIGNNYVSWYQQLPGTAPKLLLYDNNKRPSGTPDRFSGSKSGTSATLGIAGLQTGDEAVYHCATWDSSLSAEVFGGGTQVTVLG
notes: also called 克隆Z7; 人源单克隆抗体Z7
B2: Z6 (antibody, V domains shown)
VH: QVQLQESGPGLVKPSETLSLICTVSGGSISTRDYYWGWIRQTPGKGLEWIGSIYYSGGTYYSPSLKSRVTISVDTSKNQFSLKLRSVTAADTAVYYCARQWGNYFDHWGQGSLVTVSS
VL: DIVLTQSPSFLSASVGDRVTITCRASQGIDTYLAWYQQKPGKAPKLLIYGASTLQSGVPSRFSGSGSGTEFTLTISSLQPEDFATYYCQQLNNYHFTFGPGTKVDIKR
notes: also called 克隆Z6; 人源单克隆抗体Z6
B3: Z5 (antibody, V domains shown)
VH: QVQLQESGHRLVKPSETLSLTCTVSGGSISSDPYLWGWIRQPPGKGLEWIGSIYHSGSAYYNPSLKSRVTLSVDTSRNQFSLKVNSVTATDTAVYYCVEVAPPEKWGRGILVTVSS
VL: QSALTQPPSASGSPGQSVTISCTGTSSDVGGYNYVSWYQQHPGKAPKLMIYAVNKRPSGVPDRFSGSKSGNTASLTVSRLQDDDEADYYCSSYGGSNNILFGGGTKLTVLG
notes: also called 克隆Z5; 人源单克隆抗体Z5

Biological target: ZIKV-E蛋白 (寨卡病毒E蛋白胞外区, C端6*His, 大肠杆菌表达复性) (Zika virus, UniProt A0A024B7W1 291-699)
Assay: SPR, Biacore T100, antibody captured by anti-human IgG on CM5, ZIKV-E as analyte

ZIKV-E蛋白 (寨卡病毒E蛋白胞外区, C端6*His, 大肠杆菌表达复性), sequence (A0A024B7W1 291-699, tags left off): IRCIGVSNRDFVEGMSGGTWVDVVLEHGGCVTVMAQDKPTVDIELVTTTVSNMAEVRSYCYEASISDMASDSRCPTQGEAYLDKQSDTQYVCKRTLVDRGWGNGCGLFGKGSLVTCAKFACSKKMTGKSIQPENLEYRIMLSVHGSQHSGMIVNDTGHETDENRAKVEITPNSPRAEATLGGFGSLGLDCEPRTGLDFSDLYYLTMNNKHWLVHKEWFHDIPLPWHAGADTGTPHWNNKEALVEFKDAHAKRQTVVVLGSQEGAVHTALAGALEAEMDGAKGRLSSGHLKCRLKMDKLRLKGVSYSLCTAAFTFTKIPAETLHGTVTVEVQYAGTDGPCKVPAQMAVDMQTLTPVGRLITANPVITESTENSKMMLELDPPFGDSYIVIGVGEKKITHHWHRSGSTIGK

Q: For B1, which Kd is on record?
A: 0.2 nM

Q: B2 was tested. Which Kd did it give?
A: 0.0447 nM

Q: With B3 as the binder, how does the Kd read?
A: 0.0399 nM
